Data taken from the MegaScale stability set (Tsuboyama et al. 2023).

B1: r16_88_TrROS_Hall (parent)
chain: EVIELKIKFKTPEQREKLKEIAKKLNAEVVEEKDGEVIIRFKTPEQAERALKEAEKLGAEVEL
B2: HEEH_KT_rd6_0790 (parent)
chain: SEEEEEEWRRAKERGEEIIILGILWKPNDEEAERRIKEALRRV

Variants of: B1
Assay: folding stability dG (cDNA display proteolysis); higher = more stable
Settings: PBS, room temperature

Folding stability dG [kcal/mol]: each site, then its substitutions
V30: S 4.51
K10: D 4.11, Y 4.5
A22: L 4.62, Q 4.39
E28: M 4.17
V61: P 4.14
K17: L 4.53
Q46: N 4.26
A47: W 4.78
K52: S 4.28
K19: I 4.31
G35: T 4.36
A54: W 4.08
R40: E 3.93
E60: P 3.44, K 4.38, D 4.24
E32: S 4.48
I3: P 4.46
L18: C 4.11, V 4.26
T43: R 4.06, M 4.56
K8: V 4.34
L63: P 4.69, D 4.33
A27: P 4.01, T 4.26
I21: L 4.39
K23: N 4.34
V29: N 4.62
E48: Q 4.37
Q14: L 4.33
R49: D 4.56
V2: P 4.16
E1: V 4.06
R15: N 4.17, T 4.16
E62: Q 4.3, S 4.5

Variants of: B2
Assay: as above
Settings: PBS, room temperature

Folding stability dG [kcal/mol] of substitutions, site by site:
D29: V 1.25, M 1.05, S 1.42, P 1.09, Q 1.34, I 0.872, T 0.862, N 1.39, W 1.55, R 1.19, F 1.28, Y 1.24, L 1.01, E 1.06, K 0.951, H 1.28, G 1, A 1.25
N28: V 1.1, Y 1.9, I 0.872, W 2.05, Q 1.82, K 1.45, P 1.34, G 2.81, S 1.62, T 1.38, E 1.84, L 1.61, D 2.19, H 1.97, M 1.77, R 1.71, F 2.1
E30: A 2.03, T 1.9, P 2.04, S 1.83, W 1.94, F 2.05, Q 1.94, N 1.83, L 2.28, R 1.81, D 2.25, G 1.78, Y 2.13, V 2.04, I 2.17, H 2.06, K 1.93, M 2.24
A39: V 1.6, S 1.26, D 0.764, P 0.322, W 1.7, L 2.06, N 1.01, R 1.88, H 1.38, Y 1.56, M 2.1, F 1.69, K 1.79, G 1.32, T 1.31, E 1.53, Q 1.6, I 1.81, C 2.06
K37: M 2.23, G 1.43, N 2.35, F 2.11, T 2.4, E 2.49, W 2.3, D 1.93, R 2.37, S 1.85, P 0.399, Q 2.04, L 2.75, V 2.44, Y 2.08, H 2, A 1.92, I 2.56
R41: Q 1.92, V 1.75, E 1.89, Y 1.74, K 2.06, G 1.74, F 1.76, H 1.88, P 0.888, A 2.07, T 1.81, M 1.9, C 2.43, L 2.07, D 1.79, I 1.76, S 1.94, N 1.97, W 1.67
A32: Y 1.07, F 0.917, S 1.96, H 0.931, K 0.96, T 1.55, L 1.41, W 1.02, I 1.39, N 1.02, M 1.26, Q 1.07, R 1.12, G 1.2, P 0.466, D 0.955, V 1.37, E 1.25
V43: C 2.36, Y 2.38, I 2.31, L 2.79, D 1.69, R 2.75, G 1.84, E 2.08, F 2.5, P 1.84, H 2.45, M 2.48, S 2.21, Q 2.26, N 1.86, A 2.38, W 2.45, K 2.59, T 1.88
I36: S 0.815, Y 1.02, H 0.809, Q 0.909, K 0.876, D 0.894, T 1.06, E 0.641, A 1.11, V 2.01, G 1.03, M 1.39, L 1.49, N 0.613, W 1.32, P 0.142, R 0.952, F 1.5
E33: Y 1.71, V 1.52, G 1.49, F 1.66, S 1.68, N 1.61, Q 1.31, R 1.29, H 1.3, A 1.72, K 1.09, D 2.01, L 1.7, P 0.529, I 1.49, T 1.98, M 1.7, W 1.99
R35: N 1.62, A 2.21, T 1.5, Y 1.18, V 1.48, Q 2.14, D 1.49, K 2.09, S 1.71, W 1.56, M 2.2, E 1.68, P 0.078, G 1.32, H 1.61, L 2.19, F 1.38, I 1.66
E38: A 1.94, Y 0.909, G 1.46, R 1.52, S 1.67, L 1.39, P 1.11, I 1.91, V 1.46, W 1.02, N 1.61, Q 1.93, H 1.39, D 2.06, M 1.47, K 1.34, F 1.03, T 1.41
R34: A 2.22, I 1.77, Y 1.87, W 1.92, G 1.63, L 2.06, M 2.12, E 2.12, H 1.73, F 1.9, V 1.87, P 0.726, Q 2.14, N 2, T 1.9, C 2.5, S 2.02, K 2.06, D 1.64
R42: D 1.56, K 2.14, Q 2.09, I 2, M 1.98, T 1.83, A 2.11, Y 1.77, L 2.09, H 1.79, W 1.74, E 1.75, V 1.95, S 1.92, F 1.77, N 1.84, C 1.95, P 1.33, G 1.88
E31: P 0.967, M 1.54, D 2.14, G 1.61, T 1.79, F 1.49, L 1.69, A 1.79, K 1.32, H 1.64, I 1.8, N 1.69, R 1.38, Y 1.56, V 1.9, W 1.5, Q 1.72, S 1.69
L40: T 0.781, A 1.12, Q 1, G 0.586, P 0.583, E 0.814, K 1.06, M 1.76, H 1.26, D 0.532, C 1.55, N 0.57, R 1.2, V 1.25, I 1.97, Y 1.1, S 0.788, F 1.78, W 1.45
